For data set [1], the target named is T1, SARS-CoV-2 nucleocapsid protein (NP) (SARS-CoV-2, UniProt P0DTC9 1-419). The data set is described as follows: SPR; Kd value only in Fig 3a; about 10-fold weaker than antibodies; SPR: PBS + 5 mM MgCl2, 300 mM NaCl, 400 nM BLib, 2 ug/mL salmon sperm DNA, 25 C; flow cytometry in binding buffer, RT; neutralization in 10% FBS, 37 C; cross-linking in PBS pH 7.4 (SI: HEPES), RT. To be noted: protein: commercial; tags: His; chain copies: 2; label: 3' biotin.

Data set [2] concerns the target T1, SARS-CoV-2 nucleocapsid protein (NP). As to the kind of experiment: SPR; value only in Fig 3a; covalent; SPR: PBS + 5 mM MgCl2, 300 mM NaCl, 400 nM BLib, 2 ug/mL salmon sperm DNA, 25 C; flow cytometry in binding buffer, RT; neutralization in 10% FBS, 37 C; cross-linking in PBS pH 7.4 (SI: HEPES), RT. To be noted: protein: commercial; tags: His; chain copies: 2; label: 3' biotin.

Data set [3] has as its target T2, SARS-CoV-2 spike RBD, wild type (SARS-CoV-2 (wild type), UniProt P0DTC2 319-541). As to the kind of experiment: competition with ACE2-coated beads, flow cytometry; 10% FBS, 37 C; SPR: PBS + 5 mM MgCl2, 300 mM NaCl, 400 nM BLib, 2 ug/mL salmon sperm DNA, 25 C; flow cytometry in binding buffer, RT; neutralization in 10% FBS, 37 C; cross-linking in PBS pH 7.4 (SI: HEPES), RT. The following applies: protein: commercial.

Data set [4] has as its target T2, SARS-CoV-2 spike RBD, wild type. As to the kind of experiment: flow cytometry, RBD-coated Ni beads; room temperature; apparent (covalent cross-link); SPR: PBS + 5 mM MgCl2, 300 mM NaCl, 400 nM BLib, 2 ug/mL salmon sperm DNA, 25 C; flow cytometry in binding buffer, RT; neutralization in 10% FBS, 37 C; cross-linking in PBS pH 7.4 (SI: HEPES), RT. The following applies: protein: commercial.

Data set [5] has the same target. As to the kind of experiment: flow cytometry, RBD-coated Ni beads; room temperature; SPR: PBS + 5 mM MgCl2, 300 mM NaCl, 400 nM BLib, 2 ug/mL salmon sperm DNA, 25 C; flow cytometry in binding buffer, RT; neutralization in 10% FBS, 37 C; cross-linking in PBS pH 7.4 (SI: HEPES), RT. The following applies: protein: commercial.

B1: B61 (ssDNA)
DNA: GCTGGATGTTGACCTTTACAGATCGGATTCTGTGGGGCGTTAAACTGACACATCCAGCTTTTTTTT
On to B1, for which the binding result in data set [1] is reported as “binds”.

B2: NHS-B61 (ssDNA)
DNA: GCTGGATGTTGACCTTTACAGATCGGATTCTGTGGGGCGTTAAACTGACACATCCAGCTTTTTTTT
modifications: 5' NH2 conjugated to disuccinimidyl suberate (NHS ester)
With B2, the binding result in data set [2] is listed as “binds”.

With ATTACCGATGGCTTGTTTGTAATGTAGGGTTCCGTCGGAT (ssDNA, 5' NH2 conjugated to disuccinimidyl suberate (NHS ester)) [NHS-RApt (CRApt)], in data set [3], the IC50 came to 0.42 nM. Also, the Kd in data set [4] stood at 0.24 nM.

As for ATTACCGATGGCTTGTTTGTAATGTAGGGTTCCGTCGGAT (ssDNA) [RApt], the Kd in data set [5] was determined as 5.91 nM.

B3: B15 (ssDNA)
DNA: GCTGGATGTTCATGCTGGCAAAATTCCTTAGGGGCACCGTTACTTTGACACATCCAGCTTTTTTTT
For B3, in data set [1], the binding result is on record as “binds”.

B4: NHS-B15 (ssDNA)
DNA: GCTGGATGTTCATGCTGGCAAAATTCCTTAGGGGCACCGTTACTTTGACACATCCAGCTTTTTTTT
modifications: 5' NH2 conjugated to disuccinimidyl suberate (NHS ester)
As to B4, the binding result in data set [2] is “binds”.

Source of the values: PMC9881204, “Robust Covalent Aptamer Strategy Enables Sensitive Detection and Enhanced Inhibition of SARS-CoV-2 Proteins”.
